Among the data in paper PMC9328677 are Kd values, retold here.

The labels stand for the following.
B1: truncated APLF^AD construct corresponding to residues 449 to 490 (APLF^AD-Δ) [Homo sapiens] / stoichiometric mixture of full-length Drosophila melanogaster -H2B and H3-H4 (octamer-mix) [Drosophila … (parent)
chain 1: GLDEDNDNVGQPNEYDLNDSFLDDEEEDYEPTDEDSDWEPGKE
chain 2: not shown
chain 3: not shown
chain 4: not shown
chain 5: not shown

In the test the parent is B1. In words: ITC. The settings on record: with stoichiometric mixture of full-length Drosophila melanogaster H2A-H2B and H3-H4 (octamer-mix) [Drosophila melanogaster].
As for chain 1 Y15A F21A Y29A W38A, the Kd amounted to 1.22 µM.

As a reminder, the Kd is the equilibrium constant for the complex coming apart.
